According to paper PMC10201424, “Biochemical characterisation of Mer3 helicase interactions and the protection of meiotic recombination intermediates” (Nucleic Acids Research, 2022):

Assays:
Conditions in all cases: both partners purified
Top3/GST-Rmi1 complex = target: T1, Top3/GST-Rmi1 complex (S. cerevisiae, UniProt P13099 1-656; Q02685 1-241); test: pull-down; competition: Top3/GST-Rmi1 (1 μM) on glutathione beads, Mer3-Strep 1 μM, His-Sgs1(1–107) 8 or 25 μM; 25 mM HEPES pH 7.5, 5% glycerol, 100 mM NaCl, 1 mM TCEP, 0.1% Tween-20; Coomassie
T1 construct: Top3 (type IA topoisomerase), S. cerevisiae, from SK1 strain genomic DNA; untagged; Rmi1, S. cerevisiae, from SK1 strain genomic DNA; also called GST-tagged Top3–Rmi1; GST-Rmi1/Top3; source: Hi5 insect cells (co-expressed from pBIG1a), purified (GSTrap, ResourceS, SEC); not shown: GST, N-terminal, kept
T1 sequence (looked up) 1: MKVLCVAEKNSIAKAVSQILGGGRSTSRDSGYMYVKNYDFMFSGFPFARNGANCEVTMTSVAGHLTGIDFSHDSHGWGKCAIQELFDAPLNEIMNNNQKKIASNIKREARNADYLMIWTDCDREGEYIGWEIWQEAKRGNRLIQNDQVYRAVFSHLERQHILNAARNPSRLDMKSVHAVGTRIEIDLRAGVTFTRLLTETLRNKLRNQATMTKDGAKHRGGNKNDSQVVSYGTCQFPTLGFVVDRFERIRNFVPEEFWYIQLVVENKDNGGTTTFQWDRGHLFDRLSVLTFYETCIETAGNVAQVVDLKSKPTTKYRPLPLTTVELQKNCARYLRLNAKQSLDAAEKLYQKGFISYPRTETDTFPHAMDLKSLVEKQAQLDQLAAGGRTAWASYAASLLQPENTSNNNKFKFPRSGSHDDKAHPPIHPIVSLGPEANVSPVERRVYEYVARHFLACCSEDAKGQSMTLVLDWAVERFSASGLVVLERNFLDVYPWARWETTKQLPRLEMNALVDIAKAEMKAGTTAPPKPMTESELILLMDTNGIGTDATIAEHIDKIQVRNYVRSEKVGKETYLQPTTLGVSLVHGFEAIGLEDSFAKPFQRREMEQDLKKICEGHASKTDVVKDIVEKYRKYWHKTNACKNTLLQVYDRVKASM
T1 sequence (looked up) 2: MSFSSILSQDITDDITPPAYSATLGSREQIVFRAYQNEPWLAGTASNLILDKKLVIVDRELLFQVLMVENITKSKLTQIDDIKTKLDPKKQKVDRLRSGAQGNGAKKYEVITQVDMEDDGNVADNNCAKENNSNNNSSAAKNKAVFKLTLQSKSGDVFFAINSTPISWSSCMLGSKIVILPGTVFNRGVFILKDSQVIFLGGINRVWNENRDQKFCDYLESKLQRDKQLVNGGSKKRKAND

[1] = target: T2, Top3/Rmi1 complex (as used in MST and XL-MS) (S. cerevisiae, UniProt P13099 1-656; Q02685 1-241); test: MST; 30 nM RED-NHS labelled Sgs1(1–605), Top3–Rmi1 titrated; 50 mM Tris–HCl pH 7.4, 150 mM NaCl, 10 mM MgCl2, 0.05% Tween-20; 25°C; triplicates
T2 construct: Top3 (type IA topoisomerase), S. cerevisiae, from SK1 strain genomic DNA; untagged; Rmi1, S. cerevisiae, from SK1 strain genomic DNA; The methods describe a GST-tagged and an untagged (3C protease cleaved) preparation; source: Hi5 insect cells (co-expressed from pBIG1a), purified
T2 sequence (looked up) 1: T1 sequence (looked up) 1
T2 sequence (looked up) 2: T1 sequence (looked up) 2

[2] = target: T3, Mer3-Strep (full-length S. cerevisiae Mer3 with C-terminal 2xStrep-II tag) (S. cerevisiae, UniProt P51979 1-1187, phosphorylated in insect cells; high-confidence sites S17, S80, T100, S398, S958, T1092); test: pull-down; Mer3-Strep (0.7 μM) on streptavidin magnetic beads, His-Dmc1 3.2 μM or Rad51 2.8 μM; 25 mM HEPES pH 7.5, 5% glycerol, 100 mM NaCl, 1 mM TCEP, 0.1% Tween-20; stained gel
T3 sequence (looked up): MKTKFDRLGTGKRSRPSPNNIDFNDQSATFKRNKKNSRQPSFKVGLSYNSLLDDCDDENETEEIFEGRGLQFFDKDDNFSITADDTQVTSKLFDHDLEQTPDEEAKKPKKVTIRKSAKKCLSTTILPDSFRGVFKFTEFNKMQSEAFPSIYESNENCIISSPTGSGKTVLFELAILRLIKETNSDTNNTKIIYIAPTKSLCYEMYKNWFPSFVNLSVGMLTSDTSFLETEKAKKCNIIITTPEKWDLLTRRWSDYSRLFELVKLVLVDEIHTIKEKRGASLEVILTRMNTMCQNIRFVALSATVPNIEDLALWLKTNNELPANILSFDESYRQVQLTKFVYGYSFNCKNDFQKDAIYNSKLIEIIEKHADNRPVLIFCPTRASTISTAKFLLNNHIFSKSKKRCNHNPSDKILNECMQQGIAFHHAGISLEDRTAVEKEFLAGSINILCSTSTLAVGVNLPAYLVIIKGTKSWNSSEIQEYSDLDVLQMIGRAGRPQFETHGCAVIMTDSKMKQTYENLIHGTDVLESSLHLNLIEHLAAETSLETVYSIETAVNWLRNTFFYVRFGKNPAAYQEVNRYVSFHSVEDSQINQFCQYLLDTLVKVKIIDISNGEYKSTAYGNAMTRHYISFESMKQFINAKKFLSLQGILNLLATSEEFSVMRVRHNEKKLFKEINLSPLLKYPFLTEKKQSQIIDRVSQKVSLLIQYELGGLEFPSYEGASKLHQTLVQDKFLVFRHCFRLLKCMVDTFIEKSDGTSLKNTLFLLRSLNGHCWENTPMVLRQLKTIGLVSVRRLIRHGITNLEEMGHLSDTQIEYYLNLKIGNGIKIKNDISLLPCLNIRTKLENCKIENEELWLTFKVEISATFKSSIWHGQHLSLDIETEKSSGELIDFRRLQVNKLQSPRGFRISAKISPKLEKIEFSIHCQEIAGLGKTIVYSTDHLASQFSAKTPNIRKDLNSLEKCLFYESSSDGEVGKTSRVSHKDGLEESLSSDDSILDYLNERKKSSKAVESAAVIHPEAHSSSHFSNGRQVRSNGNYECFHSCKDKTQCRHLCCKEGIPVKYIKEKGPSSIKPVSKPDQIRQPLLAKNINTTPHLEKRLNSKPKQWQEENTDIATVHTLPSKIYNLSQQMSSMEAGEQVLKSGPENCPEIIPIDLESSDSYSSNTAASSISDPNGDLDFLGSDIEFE

B1: His-tagged Sgs1(1–107) (domain or fragment, S. cerevisiae, UniProt P35187 1-107, looked up)
chain: MVTKPSHNLRREHKWLKETATLQEDKDFVFQAIQKHIANKRPKTNSPPTTPSKDECGPGTTNFITSIPASGPTNTATKQHEVMQTLSNDTEWLSYTATSNQYADVPM
notes: also called shorter fragment of Sgs1; source: E. coli BL21 STAR, purified (Ni-NTA, ResourceQ, SEC); not shown: His6, N-terminal, kept
Q: Does B1 bind (Top3/GST-Rmi1 complex)?
A: binds

B2: Sgs1(1–605) (domain or fragment, S. cerevisiae, UniProt P35187 1-605, looked up)
chain: MVTKPSHNLRREHKWLKETATLQEDKDFVFQAIQKHIANKRPKTNSPPTTPSKDECGPGTTNFITSIPASGPTNTATKQHEVMQTLSNDTEWLSYTATSNQYADVPMVDIPASTSVVSNPRTPNGSKTHNFNTFRPHMASSLVENDSSRNLGSRNNNKSVIDNSSIGKQLENDIKLEVIRLQGSLIMALKEQSKLLLQKCSIIESTSLSEDAKRLQLSRDIRPQLSNMSIRIDSLEKEIIKAKKDGMSKDQSKGRSQVSSQDDNIISSILPSPLEYNTSSRNSNLTSTTATTVTKALAITGAKQNITNNTGKNSNNDSNNDDLIQVLDDEDDIDCDPPVILKEGAPHSPAFPHLHMTSEEQDELTRRRNMRSREPVNYRIPDRDDPFDYVMGKSLRDDYPDVEREEDELTMEAEDDAHSSYMTTRDEEKEENELLNQSDFDFVVNDDLDPTQDTDYHDNMDVSANIQESSQEGDTRSTITLSQNKNVQVILSSPTAQSVPSNGQNQIGVEHIDLLEDDLEKDAILDDSMSFSFGRQHMPMSHSDLELIDSEKENEDFEEDNNNNGIEYLSDSDLERFDEERENRTQVADIQELDNDLKIITERKL
notes: Sgs1 helicase, S. cerevisiae, from SK1 strain genomic DNA, residues 1-605; For MST the fragment was labelled with RED-NHS dye; also called untagged Sgs1(1–605); N-terminal fragment of Sgs1; source: E. coli BL21 STAR, purified (MBPtrap, ResourceQ, 3C cleavage, SEC); not shown: His6, N-terminal, cleaved; MBP, N-terminal, cleaved
Q: With B2 as the binder, how does the Kd [1] read?
A: 478 ± 205 nM

B3: His-Dmc1 (natural protein, yeast, UniProt P25453 1-334, looked up)
chain: MSVTGTEIDSDTAKNILSVDELQNYGINASDLQKLKSGGIYTVNTVLSTTRRHLCKIKGLSEVKVEKIKEAAGKIIQVGFIPATVQLDIRQRVYSLSTGSKQLDSILGGGIMTMSITEVFGEFRCGKTQMSHTLCVTTQLPREMGGGEGKVAYIDTEGTFRPERIKQIAEGYELDPESCLANVSYARALNSEHQMELVEQLGEELSSGDYRLIVVDSIMANFRVDYCGRGELSERQQKLNQHLFKLNRLAEEFNVAVFLTNQVQSDPGASALFASADGRKPIGGHVLAHASATRILLRKGRGDERVAKLQDSPDMPEKECVYVIGEKGITDSSD
Q: Does B3 bind [2]?
A: binds
